Here are results for one protein from patent EP2669372A1, “HPPD variants and methods of use” (Bayer CropScience AG, priority 2010, dated 2012).

Substrate in this series: O=C(O)C(=O)Cc1ccc(O)cc1
Briefly: purified protein, by the assay type. The note with it: other: substrate HPP varied between 10 and 400 µM; SEQ ID No. 32; pH 7.8.

B1: Arabidopsis thaliana HPPD "SEQ ID No. 32" (Arabidopsis thaliana) (protein)
chain: MGHQNAAVSENQNHDDGAASSPGFKLVGFSKFVRKNPKSDKFKVKRFHHIEFWCGDATNVARRFSWGLGMRFSAKSDLSTGNMVHASYLLTSGDLRFLFTAPYSPSLSAGEIKPTTTASIPSFDHGSCRSFFSSHGLGVRAVAIEVEDAESAFSISVANGAIPSSPPIVLNEAVTIAEVKLYGDVVLRYVSYKAEDTEKSEFLPGFERVEDASSFPLDYGIRRLDHAVGNVPELGPALTYVAGFTGFHQFAEFTADDVGTAESGLNSAVLASNDEMVLLPINEPVHGTKRKSQIQTYLEHNEGAGLQHLALMSEDIFRTLREMRKRSSIGGFDFMPSPPPTYYQNLKKRVGDVLSDDQIKECEELGILVDRDDQGTLLQIFTKPLGDRPTIFIEIIQRVGCMMKDEEGKAYQSGGCGGFGKGNFSELFKSIEEYEKTLEAKQLVG
As for B1, the Km amounted to 6.3 µM.

For orientation: Km means the concentration of substrate that gives half-maximal velocity.
